Reference: paper PMC4459817, “Vasculotide reduces endothelial permeability and tumor cell extravasation in the absence of binding to or agonistic activation of Tie2” (EMBO Molecular Medicine, 2015)

B1: recombinant human Ang1 (rhAng1) (ligand, UniProt Q15389 16-498, looked up)
chain: HIGCSNQRRSPENSGRRYNRIQHGQCAYTFILPEHDGNCRESTTDQYNTNALQRDAPHVEPDFSSQKLQHLEHVMENYTQWLQKLENYIVENMKSEMAQIQQNAVQNHTATMLEIGTSLLSQTAEQTRKLTDVETQVLNQTSRLEIQLLENSLSTYKLEKQLLQQTNEILKIHEKNSLLEHKILEMEGKHKEELDTLKEEKENLQGLVTRQTYIIQELEKQLNRATTNNSVLQKQQLELMDTVHNLVNLCTKEGVLLKGGKREEEKPFRDCADVYQAGFNKSGIYTIYINNMPEPKKVFCNMDVNGGGWTVIQHREDGSLDFQRGWKEYKMGFGNPSGEYWLGNEFIFAITSQRQYMLRIELMDWEGNRAYSQYDRFHIGNEKQNYRLYLKGHTGTAGKQSSLILHGADFSTKDADNDNCMCKCALMLTGGWWFDACGPSNLNGMFYTAGQNHGKLNGIKWHYFKGPSYSLRSTTMMIRPLDF
notes: angiopoietin-1, human, recombinant; also called angiopoietin-1; source: bought: R&D Systems (named for the Boyden chamber experiments)

Molecular target: T1, human Tie2-Fc (hTie2-Fc) (Homo sapiens, UniProt Q02763)
T1 construct: Purified human or mouse Tie2-Fc (i.e., Fc-conjugated extracellular domains of Tie2); purchased R&D Systems 313-TI-100
Assay: SPR binding to human Tie2-Fc
Conditions: 37°C; for binding to Tie2-Fc: human Tie2-Fc, 0.625–10 nM, pH 7.4, Fig9C
From the text: To better understand the difficulties we had in observing Tie2 activation by VT, we sought to characterize the binding affinity and kinetics of VT to Tie2. Purified human or mouse Tie2-Fc (i.e., Fc-conjugated extracellular domains of Tie2) were first coupled to protein A sepharose beads for pull-down experiments (Fig9A and B) or immobilized on a Biacore CM5 sensor chip for surface plasmon resonance (SPR) experiments (Fig9C and Supplementary Fig S3).
Figure 9 Binding of Vasculotide vs. Ang1 variants to the extracellular domain of Tie2 • A–B Pull-down assay. Input ligands—rhAng1 (A) and VT (B)—were incubated with either protein A sepharose beads only, bead-conjugated mouse Tie2-Fc (mTie2), or bead-conjugated human Tie2-Fc (hTie2). […] The ‘unbound’ fraction is 7% of residual/free ligands remaining in the supernatant. • C Quantitative kinetics analysis by SPR. All analytes were run at increasing concentrations of 0.625, 1.25, 2.5, 5, and 10 nM, at 37°C and pH 7.4. […] Source data are available online for this figure. […]
9. Tie2 Receptor-Binding Assays
Vasculotide (VT) was manufactured by Bachem UK Ltd. T7c (CHHHRHSF) was synthesized by Genscript (Piscataway, NJ, USA). PEG-Cys consists of a single cysteine reacted to each of the 4 arms of PEG-maleimide (Sunbright PTE-100MA, NOF Corporation, Tokyo, Japan). BowAng1 (Ang1-Fd-Fc-Fd) was made and provided by Regeneron Pharmaceuticals, Inc. (Tarrytown, NY, USA). COMP-Ang1 was purified in the Kerbel lab from serum-free culture media conditioned by an engineered CHO cell line provided by Dr. Gou Young Koh (KAIST), according to published protocols (Hwang et al, 2008).
Recombinant human Angiopoietin-1 (rhAng1) and Vascular Endothelial Growth Factor ( rhVEGF) were […]
purchased from R&D Systems. […]
(structural/molecular weight control for VT), and 40 μL of supernatant (7% of residual/unbound ligand) – were similarly boiled in SDS sample buffer. Ang1 samples and controls were resolved by 7.5% polyacrylamide gel electrophoresis (PAGE), electroblotted onto PVDF membranes, and probed with an anti-Ang1 antibody (R&D Sytems, AF923; diluted 1:2,000 in TBS supplemented with 7% BSA and 0.1% Tween-20) at 75kDa (reduced monomers). VT samples and controls were resolved by 17% PAGE, blotted onto PVDF membranes, and probed with an anti-PEG antibody (Silver Lake Research, CH2074; diluted 1:4,000 in TBS supplemented with 7% BSA and 0.05% CHAPS*) at higher “apparent” molecular weights than the expected 14 and 10kDa due to their polymeric nature and large hydrodynamic radii (Zheng et al, 2007). *Note: non-ionic, PEO-based, polymer detergents were avoided at these steps as they cross-react with the anti-PEG antibody used for detecting VT.
Surface Plasmon Resonance (SPR) Experiments: The binding of analytes – VT, T7c peptide, PEG-Cys, rhAng1, COMP-Ang1, BowAng1, and rhVEGF – to the extracellular domain of Tie2 were […]
investigated by SPR using a Biacore T200 Instrument (GE Healthcare). For qualitative binding analysis, mTie2-Fc was dissolved in 10mM acetate buffer (pH 4.5) and immobilized at high density onto a CM5 sensor chip using amine coupling chemistry as described by the manufacturer to a response of 11,500RU.
Binding analysis were performed by exposure of immobilized mTie2-Fc to the analytes diluted in HBS-EP (0.01M HEPES pH 7.4, 0.15M NaCl, 3mM EDTA, 0.005% v/v Tween-20), which was supplemented with 1mg/mL carboxymethyl dextran (NSB reducer, GE Healthcare) to reduce non-specific binding to the sensor chip. Analytes were injected at 30μL/min (association time 120s, dissociation time 120s) at 37 °C, and the chip surface was regenerated each cycle by a 60s pulse of 4M MgCl2. To quantitatively determine the kinetic properties of the interaction (KD, kd, ka) and avoid mass transport limitations, mTie2-Fc and hTie2-Fc were immobilized at low density (1,000-1,200RU) onto separate flow cells of the CM5 chip using amine coupling chemistry. Kinetic analyses were performed using a single-cycle kinetic […]

[1] = Biacore T200, single-cycle kinetics, 1:1 model, 0.625–10 nM analyte, pH 7.4 (HBS-EP), Fig9C

T1 sequence (Q02763 23-748 limits assumed): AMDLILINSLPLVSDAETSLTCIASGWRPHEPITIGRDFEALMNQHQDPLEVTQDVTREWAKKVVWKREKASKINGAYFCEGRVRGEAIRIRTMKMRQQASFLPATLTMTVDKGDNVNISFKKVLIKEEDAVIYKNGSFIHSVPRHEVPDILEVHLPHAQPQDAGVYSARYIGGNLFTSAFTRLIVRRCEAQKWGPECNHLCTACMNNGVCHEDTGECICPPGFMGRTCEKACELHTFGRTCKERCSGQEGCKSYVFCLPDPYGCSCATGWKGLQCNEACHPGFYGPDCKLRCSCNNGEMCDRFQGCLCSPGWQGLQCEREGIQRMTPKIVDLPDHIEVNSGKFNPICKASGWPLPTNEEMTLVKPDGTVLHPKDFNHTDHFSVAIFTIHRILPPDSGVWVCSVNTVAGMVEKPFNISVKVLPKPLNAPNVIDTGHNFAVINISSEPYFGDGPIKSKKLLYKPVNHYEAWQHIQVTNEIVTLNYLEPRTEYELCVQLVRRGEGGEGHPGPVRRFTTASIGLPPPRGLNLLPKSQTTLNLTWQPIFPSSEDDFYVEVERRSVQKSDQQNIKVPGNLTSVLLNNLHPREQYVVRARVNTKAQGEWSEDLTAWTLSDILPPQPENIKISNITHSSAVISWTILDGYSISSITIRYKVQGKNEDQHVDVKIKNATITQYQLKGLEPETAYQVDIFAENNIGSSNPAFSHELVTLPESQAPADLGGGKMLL

Molecule | binding to Tie2-Fc (listed as VT) | Off-rate, Kd [1] [s⁻¹] | On-rate, Ka [1] [M⁻¹ s⁻¹] | binding to Tie2-Fc
CHHHRHSF [Vasculotide, 4-armed maleimide-functionalized polyethylene glycol (PEG) backbone to link together four cysteine-capped T7 peptides, that is, CHHHRHSF] | no binding to Tie2-Fc was detectable |  |  | 
B1 |  | 0.00029 | 1.4e+06 | bound strongly
